Our source for the protein stability index values is the supplement of paper PMC10567573.

± gives the standard deviation.

The data set can be described thus: protein stability index of a GFP-peptide fusion (GPS, HEK-293T) (PSI 1-6); higher = more stable. Conditions: c terminus: a fixed tail appended.
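Also: 24-mer peptide tiles fused after GFP, lentivirally expressed, FACS-sorted into six equal bins by GFP/DsRed ratio, decoded by Illumina sequencing, PSI is the read-weighted mean bin number.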

LFLKDVLGDEICCWSFYGQGRKIA [KCTD13] yielded a protein stability index (treatment: DMSO) of 2.64 ± 0.42 and a protein stability index (treatment: MLN4924 1 uM, 8 h) of 2.07 ± 0.55.
As for LFSELAEDKENYKKFYEAFSKNLK [HSP90AB1], the protein stability index by setting is: (treatment: DMSO) 2.83 ± 0.23; (treatment: MLN4924 1 uM, 8 h) 3.62 ± 0.17.
The corresponding values for LFVIRGQPADVFPRLFKEWNITKL [CRY1] are 2.18 ± 0.29 and 2.24 ± 0.32.
The corresponding values for LGCNRQSWCLKRYDLEYWAFHDGQ [TRIM14] are 2.5 ± 0.34 and 2.34 ± 0.38.
The matching figures for LGHREPSAHPVEVFSFDLHEPLSK [TMEM175]: 3.92 ± 0.16 and 4.17 ± 0.28.
As for LGHSPVLRNITNSQAPDGRRKSEA [CDC25B], the protein stability index turned out to be 3.77 ± 0.4 (treatment: DMSO) and 4.22 ± 0.48 (treatment: MLN4924 1 uM, 8 h).
The matching figures for LGIPYYETSVVAQFGIKDVFDNAI [RHOBTB2]: 2.17 ± 0.18 and 2.14 ± 0.23.
The matching figures for LGLFTLILTEPAQAQKCYRDLALV [INTS3]: 3.14 ± 0.36 and 2.79 ± 0.35.
As for LGNGLLRKKTLVPGPPGSSRPVKG [FKBP8], the protein stability index is, setting by setting: (treatment: DMSO) 3.94 ± 0.12; (treatment: MLN4924 1 uM, 8 h) 4.05 ± 0.47.
The matching figures for LGPPLVRKRIHDSRVAGFNPALQL [TOR1AIP2]: 3.07 ± 0.28 and 3.03 ± 0.26.
On to LGTELAERQGNGQQAMSLAILRVI [KCNA3], for which the protein stability index runs as follows: (treatment: DMSO) 2.42 ± 0.19; (treatment: MLN4924 1 uM, 8 h) 2.52 ± 0.12.
For LGVFLDYEAGVLAFYDVTGGMSHL [TRIM14], the protein stability index runs as follows: (treatment: DMSO) 2.83 ± 0.5; (treatment: MLN4924 1 uM, 8 h) 2.98 ± 0.82.
Turning to LGVQTGGPGGRRAGEPGHSPADYL [DYRK1B], the protein stability index came out at 4.34 ± 0.38 (treatment: DMSO) and 4.3 ± 0.31 (treatment: MLN4924 1 uM, 8 h).
The matching figures for LHMSQRERTWPPPAMSPYWRTWMT [C22orf15]: 2.31 ± 0.24 and 2.56 ± 0.37.
The matching figures for LIANIVHDGKPSEGSYRIHVLHHG [USP39]: 2.21 ± 0.2 and 2.19 ± 0.25.
For LIFLSNFPFSLLGLLALAIGLWGL [TSPAN10], the protein stability index is 3.21 ± 0.27 (treatment: DMSO) and 2.93 ± 0.25 (treatment: MLN4924 1 uM, 8 h).
As for LIPKTWYSAEQFCVSRNSHLTSVT [CD207], the protein stability index is, setting by setting: (treatment: DMSO) 2.17 ± 0.32; (treatment: MLN4924 1 uM, 8 h) 2.19 ± 0.28.
In the case of LITKNHSQEETSILRCWKCRKCIA [RNF180], the protein stability index came to 2.48 ± 0.44 (treatment: DMSO) and 2.98 ± 0.58 (treatment: MLN4924 1 uM, 8 h).
LIVTSLLLLPGLNQHGIILKYIGM [ARL6IP1] returned a protein stability index (treatment: MLN4924 1 uM, 8 h) of 3.15 ± 0.81.
Take LKCEMNQMSGEPLDKLNFEAINFC [ACSBG2]: the protein stability index (treatment: DMSO) amounted to 2.92 ± 0.41 and the protein stability index (treatment: MLN4924 1 uM, 8 h) worked out at 3.16 ± 0.31.
Regarding LKDFTLNETVNSIFAQGAPRSSLA [ADAMTSL2], the protein stability index runs as follows: (treatment: DMSO) 3.01 ± 0.17; (treatment: MLN4924 1 uM, 8 h) 3.26 ± 0.32.
The matching figures for LKGYPSLMRSQSPKAQPQTWKSGK [TRIM29]: 3.88 ± 0.36 and 3.93 ± 0.22.
In turn, LLAAGANVHATTATGDTALTYACE [ANKRD17] registered a protein stability index (treatment: DMSO) of 4.13 ± 0.2 and a protein stability index (treatment: MLN4924 1 uM, 8 h) of 3.9 ± 0.23.
For LLCLLHFSIVSVAAHLALLLLCGT [RTN2], the protein stability index worked out at 3.19 ± 0.65 (treatment: DMSO) and 3.33 ± 0.3 (treatment: MLN4924 1 uM, 8 h).
The matching figures for LLLCGTISLRVYRKVLQAVHRGDG [RTN2]: 2.66 ± 0.37 and 2.36 ± 0.63.
The corresponding values for LLLLFGVAGGLVACRVTELQQQPL [LRRC59] are 2.77 ± 0.2 and 3.46 ± 0.55.
The matching figures for LLPIVPLSWLVWLLLLLLASLLPS [ADAMTS4]: 3.04 ± 0.33 and 3.17 ± 0.51.
With LLSKYCGYREDNIPQLEDVSNFLK [TPH1], the protein stability index by setting is: (treatment: DMSO) 2.41 ± 0.59; (treatment: MLN4924 1 uM, 8 h) 2.61 ± 0.57.
The corresponding values for LLVGGLPPGPDRLPSNLVQYYDDE [KLHL14] are 4.17 ± 0.25 and 4.04 ± 0.087.
The matching figures for LMSSAVPMTPEDPSFWDCFCFTEE [AASDHPPT]: 3.98 ± 0.25 and 3.86 ± 0.23.
The corresponding values for LNILIQSLDWETFEQYCAWQLFLA [INTS3] are 3.04 ± 0.92 and 2.62 ± 0.12.
Consider LPEELRRLSGLSSVGHNWRKRMGT [C22orf15], for which the protein stability index by setting is: (treatment: DMSO) 2.99 ± 0.18; (treatment: MLN4924 1 uM, 8 h) 3.07 ± 0.22.
The corresponding values for LPESGLLSVLQIAQQDLAPDPDAW [FANCE] are 4.06 ± 0.19 and 4.01 ± 0.22.
As for LPFVLAAAVSRKKKRRMGTYSLVP [EHMT1], the protein stability index by setting is: (treatment: DMSO) 2.34 ± 0.26; (treatment: MLN4924 1 uM, 8 h) 2.27 ± 0.24.
The corresponding values for LPPPSALKKGSKEKQADFLDKQMS [NFE2L1] are 4.89 ± 0.24 and 4.91 ± 0.29.
The corresponding values for LPQEDPSTSQGCAQPQGAPCCSSS [FEM1A] are 5.48 ± 0.12 and 5.37 ± 0.19.
